Measured values: patent US20060240015A1 (Kyowa Kirin, published 2006)

Legend:
[1] = target: T1, human insulin (human, UniProt P01308 25-54; P01308 90-110); assay: competitive ELISA, methylated BSA-hIGF-I or methylated BSA-hIGF-II coated, insulin in solution
T1 construct: Bought
Excerpt: Cross reactivity of the purified anti-hIGF rat antibody KM1468 with hIGF-II and human insulin was examined by the competitive ELISA shown below. As the antigens, hIGF-I (manufactured by Pepro Tech), hIGF-II (manufactured by Pepro Tech) and human insulin (manufactured Wako Pure Chemical Industries) were used.
The methylated BSA-hIGF-I antigen prepared in Reference Example 1(1) or a methylated BSA-hIGF-II antigen prepared in the same manner as in Reference Example 1(1) was immobilized on a plate in accordance with the method shown in Reference Example 1(4), at a concentration of 0.1 μg/ml in the case of the methylated BSA-hIGF-I antigen, or at a concentration of 1.0 μg/ml in the case of the methylated BSA-hIGF-II antigen, KM1468 diluted to 0.6 μg/ml was dispensed at 25 μl/well, and then each of 4-fold serial dilutions of hIGF-I, hIGF-II or human insulin prepared by starting from 20 μg/ml was dispensed at 25 μl/well, mixed and left at room temperature for 1 hour. After the reaction and subsequent washing with Tween-PBS, 1000-fold diluted peroxidase-labeled rabbit anti-rat Ig antibody (manufactured by DAKO) was added at 50 μl/well as the secondary antibody in the case of the anti-hIGF antibody KM1468. […] The results are represented by relative values (%) wherein OD415 when an antibody was added alone was defined as 100.

[2] = target: T2, human insulin-like growth factor-I (human, UniProt P05019 49-118); assay: SPR (Biacore 2000), hIGF-I amine-coupled on CM-5, antibody as analyte, 25 C
T2 construct: mature; In the ELISAs it was coated as a conjugate with methylated BSA; in Biacore it was amine-coupled to a CM-5 chip; also called hIGF-I; IGF-I
T2 sequence (P05019 49-118): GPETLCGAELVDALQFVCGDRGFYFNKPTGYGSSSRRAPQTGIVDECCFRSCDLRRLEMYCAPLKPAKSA
Description: (§1) In order to analyze the binding activity of the anti-hIGF rat monoclonal KM1468 to an antigen hIGF-I or hIGF-II, the binding affinities of the anti-hIGF rat monoclonal KM1468, a commercially available anti-hIGF-I antibody sm1.2 and a commercially available anti-hIGF-II antibody S1F2 to hIGF-I and hIGF-II were assayed in the following manner using the biosensor Biacore 2000 (manufactured by Biacore) utilizing surface plasmon resonance. For the diluting samples and as the reaction buffers in measurement, HBS-EP (10 mM HEPES, 150 mM NaCl, 3 mM EDTA, 0.005% Tween 20, pH 7.4) (manufactured by Biacore) was used.
(§2) Using an amine coupling (manufactured by Biacore), hIGF-I or hIGF-II were immobilized at 36.0 pg/mm² or 41.7 pg/mm², respectively, on sensor tip CM-5 (manufactured by Biacore). After 3 types of the antibodies which were diluted in 6 steps in 2-fold serial dilutions starting from 20 μg/ml as analytes, were added at a flow rate of 20 μl/minute for 2 minutes, the dissociation of the analytes was subsequently observed over 5 minutes. The reaction was carried out at 25° C. Based on the reaction curves at various concentrations, association constant Kass and dissociation constant Kdiss were calculated, to calculate the binding constant KA (M⁻¹) of these various antibodies. The binding constant KA is calculated by KA=Kass/Kdiss.

[3] = target: T3, partial peptide of hIGF-I corresponding to 29th to 41st (human); assay: competitive ELISA, methylated BSA-hIGF-I coated, peptide in solution
T3 construct: also called p29-41
T3 peptide: CTGYGSSSRRAPQT

[4] = target: T4, partial peptide of hIGF-I corresponding to 61st to 70th (human); assay: as above
T4 construct: also called p61-70
T4 peptide: CAPLKPAKSA

[5] = target: T5, partial peptide of hIGF-I corresponding to 41st to 56th (human); assay: as above
T5 construct: also called p41-56
T5 peptide: CTGIVDEAAFRSADLRR

[6] = target: T6, partial peptide of hIGF-I corresponding to 1st to 18th (human); assay: as above
T6 construct: also called p1-18
T6 peptide: GPETLSGAELVDALQFVC

[7] = target: T7, partial peptide of hIGF-I corresponding to 52nd to 70th (human); assay: as above
T7 construct: also called p52-70
T7 peptide: CDLRRLEMYAAPLKPAKSA

[8] = target: T8, partial peptide of hIGF-I corresponding to 36th to 47th (human); assay: as above
T8 construct: also called p36-47
T8 peptide: RRAPQTGIVDEC

[9] = target: T9, partial peptide of hIGF-I corresponding to 41st to 56th having an inner Cys (human); assay: as above
T9 construct: also called p41-56C; p41-56c
T9 peptide: CTGIVDECCFRSCDLRR

[10] = target: T10, partial peptide of hIGF-I corresponding to 24th to 35th (human); assay: as above
T10 construct: also called p24-35
T10 peptide: CYFNKPTGYGSSS

[11] = target: T11, partial peptide of hIGF-I corresponding to 14th to 30th (human); assay: as above
T11 construct: also called p14-30
T11 peptide: CLQFVAGDRGFYFNKPTG

[12] = target: T12, human insulin-like growth factor-II (human, UniProt P01344 25-91); assay: SPR (Biacore 2000), hIGF-II amine-coupled on CM-5, antibody as analyte, 25 C
T12 construct: also called hIGF-II; IGF-II
T12 sequence (P01344 25-91 limits assumed): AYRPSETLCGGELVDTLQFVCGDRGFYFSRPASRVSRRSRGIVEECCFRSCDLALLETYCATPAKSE
Description: as §1, §2

[13] = target: T12, human insulin-like growth factor-II; assay: SPR (Biacore 2000)
[14] = target: T2, human insulin-like growth factor-I; assay: SPR (Biacore 2000)

T1 sequence (P01308 25-54 limits assumed, chain 1 of 2): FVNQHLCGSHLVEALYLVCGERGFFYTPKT
T1 sequence (P01308 90-110 limits assumed, chain 2 of 2): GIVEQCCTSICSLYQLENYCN

B1: anti-hIGF rat monoclonal antibody KM1468 (antibody, rat IgG2b, V domains shown)
VH: EVHLVESGGGLVQPGRSLKLSCAASGFTFSNYYMTWVRQAPTKGLEWVAYISSGGGSTYYRDSVKGRFTISRDNAKSTLYLQMDSLRSEDTATYYCTTEDYGYWFAYWGQGTLVTVSS
VL: EIVLTQSPTTMAASPGEKVTITCRASSSVSYMHWFQQKSGTSPKPWIYGTSKLASGVPDRFSGSGSGTSYSLTISSMEAEDAATYYCLQRSSYPPTFGAGTKLELK
notes: Rat IgG2b, kappa; Hybridoma FERM BP-7978; also called anti-hIGF antibody KM1468; anti-hIGF rat antibody KM1468
- binding result [1]: no binding
- Ka [2]: 7.86e+09 M⁻¹
- binding result [3]: no binding (tested: 3-fold serial dilutions from 50 µg/mL)
- binding result [4]: no binding (tested: 3-fold serial dilutions from 50 µg/mL)
- binding result [5]: no binding (tested: 3-fold serial dilutions from 50 µg/mL)
- binding result [6]: no binding (tested: 3-fold serial dilutions from 50 µg/mL)
- binding result [7]: no binding (tested: 3-fold serial dilutions from 50 µg/mL)
- binding result [8]: no binding (tested: 3-fold serial dilutions from 50 µg/mL)
- binding result [9]: no binding (tested: 3-fold serial dilutions from 50 µg/mL)
- binding result [10]: no binding (tested: 3-fold serial dilutions from 50 µg/mL)
- binding result [11]: no binding (tested: 3-fold serial dilutions from 50 µg/mL)
- Ka [12]: 8.63e+09 M⁻¹
- KA relative to S1F2 (fold) [13]: ~3.6 fold
- KA relative to sm1.2 (fold) [13]: ~120 fold
- KA relative to S1F2 (fold) [14]: ~18 fold
- KA relative to sm1.2 (fold) [14]: ~42 fold
